# Assay results reported in article PMC7301450.
# Molecular target: α-CD64-scFv
# Assay: ELISA; wells coated with 10 μg/mL α-CD64-scFv overnight at 4 °C, blocked with 3% BSA/PBS; recombinant CD64 at 0, 0.5, 1.0, 5.0 and 10 ng/mL, room temperature 2 h; detected with rabbit anti-CD64 polyclonal antibody, anti-rabbit HRP and TMB, read at 370 nm
# Sequence of α-CD64-scFv (heavy, as listed by the source, chain 1 of 2): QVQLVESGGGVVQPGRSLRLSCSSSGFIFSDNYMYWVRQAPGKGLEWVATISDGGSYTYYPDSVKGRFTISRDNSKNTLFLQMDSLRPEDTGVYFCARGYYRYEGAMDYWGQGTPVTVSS
# Sequence of α-CD64-scFv (light, as listed by the source, chain 2 of 2): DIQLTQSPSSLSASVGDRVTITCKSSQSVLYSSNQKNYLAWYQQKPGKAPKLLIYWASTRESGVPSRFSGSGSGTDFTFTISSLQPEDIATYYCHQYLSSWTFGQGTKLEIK
substance,measurement,value
recombinant human CD64 (from UniProt P12314 16-292) (receptor),maximum absorbance (at 5 ng/mL CD64),0.236 absorbance
